According to publication PMC9129923:

Target: microtubules grown from porcine brain tubulin (porcine) (UniProt P02550)
Test: TIRF microscopy of fluorescent proteins on dynamic microtubules in vitro

Row | fold intensity along MTs over NEDD1^CDK1/PLK1 | MT binding at 10 nM, percent of γ-TuRC^StN/CDK1/PLK1 | MT binding at 50 nM, percent of γ-TuRC^StN/CDK1/PLK1 | Substance
1 | 20 fold | – | – | augmin^CDK1/PLK1-GFP, Q96CS2-1;Q9NVX0-1;Q68CZ6-1;Q9H6D7-1;O94927-1;Q7Z4H7-1;Q99871-1;Q9BT25-1
2 | – | 21% | 13% | γ-TuRC^ΔWD/StN/CDK1/PLK1-GFP (γ-TuRC purified by Strep-NEDD1 ΔWD, GCP3-GFP) (from UniProt P23258;Q9BSJ2-1;Q96CW5-1;Q9UGJ1-2;Q96RT8-1;Q96RT7-1;Q08AG7;Q6P582;Q6NZ67;Q9Y5B8-1) (complex)
